# The nanobody polyreactivity screen of Harvey et al. (2022)
# Experiment: yeast display, Sf9 membrane polyspecificity reagent, FACS + sequencing; frameworks hold sequencing errors
# How it was run: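 Galactose induction of a Saccharomyces cerevisiae BJ5465 synthetic nanobody display library ran 36–48 hours. The cells were then stained for 1 hour at 4 °C with 10% biotinylated, detergent-solubilized Sf9 membrane reagent, pulled down on streptavidin microbeads and FACS-sorted into low and high (top ~1%) gates on expression and reagent-binding fluorescence. Labels for polyreactivity follow the gate of origin.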
row,Sequence,polyreactivity (PSR sort gate)
1,QVQRVESGGRLVQAGGSLRLSCAPSGFTFQDYAMGWSRQAPGKERELVAAISRNGGSTYYADSVKGRFTISRDNAKNTVYLQMNSLKPEDTAVYYCNADSHHRRGSRDYCGQGTQVTVSS,low polyreactivity
2,QVQRVESGGVLVQAGGSLRLSCAASGITFYVYAMGWYRQAPGKERELVASITRSVGITSYADSVKGRFTISRDNSKNTVYLQMNSLKQEDSAVYYCAAERSNLHYNIQGVGYWGQGTQVTVSS,low polyreactivity
3,QVQRVESRGGLVQAGGSLRLSCAASGSTFHRYVKGWSRTATGKERELVSVINSTGASTYYADSVKWRYTLSRDNAKNSVYLQMNSLKPEDTAVYYCARVTRRGPGYTTLYSRYDYWGQGTQVTVSS,low polyreactivity
4,QVQRVESVGGLVQAGGSLRFSCAASGSTFTANAMGWYRQAPGKEREFVAAITQSGGDTYYADSVKGRFTISRDNAKNTVYLQMNSLKPEDSEVYYCAAESAYFVALTHFYTVEFYYWGQGTQGTVSS,low polyreactivity
5,QVQRVETGRGIVQAGGILRLSCAASGRTFHLYAMGWYRQQPGKERELVADIDGDGGSTYYSDSVKGRFTISRDNAKNTVYLQMNSLKPEDTAVYDCAASRFDYWGQGTQVTVSS,low polyreactivity
6,QVQVEESGGGVVQAGGSLRLSCAAYGRIFFRNAMGWYRPAPGKERELVAVINTGGSTNYADSVKGRFTISRDNAKNTVYLQMNRLKAEDTAVYYCAVDRASRRTYNQYGYWGQGTQVSVSS,high polyreactivity
7,QVQVVDSGGGLVQAGGSLSLSCAASGSIFIYYAMGWYRQAPGKERELVAVINDDGSTNYADSVKGRFTISRDNAMNTVYLQMNSLKPEDTAVYYCNTTIGTYYSPSDYWGQGTQVTVSS,low polyreactivity
8,QVQVVESGGGFVQAGGSLRVSCAASGSTFRANAMGCYTQAPGKERELVAAISQSGGITYYADSVKGRFTISRDIAKNTVYLQMNSLKPEDTAVYYCAAKIALDNDYWGQGTQVTVSS,high polyreactivity
9,QVQVVESGGGLVKAGGSLRISCAASGRSFGANVMGWYRQAPGKEREFVAAISSSGGSTYYADSVKGRFTISRDNAKNTVYLQMNSVKPEDTAVYYCAAGGWPYSGGWFFQPNYDYWGQGTQVTVSS,low polyreactivity
10,QVQVVESGGGLVQAGASLRLSCAATGSIFVWNDMGGYRQAPGTEREFVAAITSGDGSTYYADSVKGRFTISRDNAKNTGYLQMNSLKPEDTAVYYCAARLRVTGFYSRTRFYWGQGTQVTVSS,low polyreactivity
11,QVQVVESGGGLVQAGGSLRLRCAASGRIFAHYAMGWYRQAPGKEREMVAAISSSGTRTYYADSVKGRFTISRDNAKKTVYLQMNSLKPEDTAVYYCAKDSYHTVWGGYWGQGTQVTVSS,high polyreactivity
12,QVQVVESGGGLVQAGGSLRLSCAASGFTFYPNAMGWYRQAPGKERELVATITGSGGSTNYADSVKGRFPISRDTAQNTVYLQMNSLKPEDTAVYYCAADYAVYSFTDFNYWGQGTQVTVSS,high polyreactivity
13,QVQVVESGGGLVQAGGSLRLSCAASGGIFYGYAMGWYRQAPGKERELVAAITSNGGTTYYADSVKGRFTISRDNAKNTVYLQMNSLKPEDTAVYYCDAYFKDSGSYYYWGQGTQVNVSS,low polyreactivity
14,QVQVVESGGGLVQAGGSLRLSCAASGRIFNYYAMGWYRPAPGKERELVATITGGGRTYYADSVKGRFTISRDNGMKTVYLQMNSLKPEDSAVYYCAAQYGGLSYRYDYWGQGTQVTVSS,high polyreactivity
15,QVQVVESGGGLVQAGGSLRLSCAASGRTFDVYAMGWYRQAPGKERELVAAITERGSTYYADSVKRRFTISRDNAKNTDYLQMNSLKPVDTAVYDCAARTSGDGCIYYYWGQGTQVTVSS,high polyreactivity
16,QVQVVESGGGLVQAGGSLRLSCAASGRTFNPNVMGWYRQAPGKERELVAAISRGGSTYYADSVKGLFTISRDNAKNTVYLQMNSLKPEDTAVYYCAATHYGHSISNWFDYWGQGTQVTVSS,high polyreactivity

row,Sequence,polyreactivity (PSR sort gate)
1,QVQVVESGGGLVQAGGSLRLSCAASGRTFRDNAMGWYRQAPGNERELVAAISRSGGRTYYADSVKGRCTISRDNAKNTVYLQMNSLKPEDTAVYYCAAYYYTAGDSSARYDYWGQGTQVTVSS,high polyreactivity
2,QVQVVESGGGLVQAGGSLRLSCAASGRTFRSYAMVWYRQAPGKERELVASISRGASTNYADSVNGRFTISRDNSKNTVYLQRNSLKPEDTAVYYCAAKYSWGYTYYYWGQGTQVTVSS,high polyreactivity
3,QVQVVESGGGLVQAGGSLRLSCAASGSTFSRNAMGWYRQAPGKERELVAAINYSGGITYYADSVKGRFTISRDNAKNTVYLQMNSQKPEDTAVYYCAAVATNVPTHGRPSRRAYDYWGQGTQVTVSS,low polyreactivity
4,QVQVVESGGGLVQAGGSLRLSCAASGSTFVTYAMGWYRQARVKERELVAGISTGDITNYADSVKVRFTISRDNAKNTVYLQINRLKPEDTAVYYCSADLIQGAAPFRYDYWGQGTQVTVSS,low polyreactivity
5,QVQVVESGGGLVQAGGSLRLSCAASGSTFYRYAMGWYRQAPGKERELVAAITRGGGRTYYADSVKGRFTISRDHAKNTVYLQMNSLKPEDSAVYYCNAASPYYDSWGQGTQVTVSS,high polyreactivity
6,QVQVVESVGGLVHAGCSLRLSCAASGRTFISNAMGWYRQAPGKERELVATITYSDATTYYADSVKGRFTISRDNAKNTVYLQMNSLKPEDTAVYYCIAQSRSYDRYISAGRRYDYWGQGTQVTVSS,low polyreactivity
7,QVQVVQSGGGLVQAGGSLRLSCAASGSIFVPNSMGWYRPPPGKERELVAAISLSGGSTYYADSVKGRFTISRDYARNTVYLQMTSLKPEDSAVYYCAADIFYYSSSYGYWGLGTQVTVSS,low polyreactivity
8,QVRLVESCGGLVQAGGSLRLSCAASGITFQYNAMGWYRQAPGKERELVATIRRGGITKYADSVKGRFTISRDNAKNTVYLQMNSLKPEDTAVYYCNADWVWRYSSDFDYWGQGTQVTVSS,low polyreactivity
9,QVRLVESGGGLVQAGGSLRLSCAASGSTFWSYAMGWYRQAPGKERELVAAISWSGDSTYYADSVKGRFTISRDNAKNTVYLQMNSLKPEDTAVYYCAADYTGSFYTYDYWGQGTQVTVSS,low polyreactivity
10,QVRLVESGGGLVQAGGSLRLSSAASGRIFNGNAMGWYRQAPGKERELVAAINRGGSTNYADSVKGRFTISRDNAKNTVYLQMNSLKPEDTAVYYCAAELLYATRWRRYSGYYDWGQGTQVTVSS,high polyreactivity
11,QVWLQESGGGLVQACGSLRLRCAASGTISRDIFMGWYRQAPGKEREFVATIAQGGITNYADSVKGRFTISRDNAKNTVYLQMNSVKPGDTAVYYCAARDGNCYWFYYLGQGTQVTVSS,high polyreactivity
12,RFQLVESGGGLVQAGGSLRLSCAASGFTFRDYSMGGYRQAPGKERELVATISWGGASTSYADSVKGRFTISRDNAKNTVYLQMNSLKPEDTAVYYCNVRAQRRHGGYDHWGQGTLVTVSS,low polyreactivity
13,RVQLQESGGGLVQAGGSLRLSCAASGTIFIRGDMGWYRQAPGKEREFVATIDTGSNTYYADSEKGRFTISRDNAKNAVSLQMICLKPGDTAVYYCVVDYQLSGRLRYWGQGTQVTLSS,low polyreactivity
14,RVQLVESGGGLVQAGGSLRLSCAASGFTFRDYAMGWYRQAPGKERELVARIRIRDSNTYYADSVKGRFTISRDNAKNTVYLQMNSLKPEDTAVYYCAVVANYVYSKYDYWGQGTQVTVSS,low polyreactivity
15,VQLVESGGGLVQAGGSLRLSCAASGFTFRWYAMGWYRQAPGKERELVAAISRGGNTNYADSVKGRFTISRDNANNTVYLQMNSLNPDDTAVYYCAAGHGSLRYNYWGQGSQVTVSS,high polyreactivity
16,VQLVESGGGLVQAGVSLRLSCAASGSTFRPYAMGWYRQAPGKERELVAAITGSGGSTYYADSVKGRFTISRDNAKNTVYLQMNSLKPEDTAVYYCNAVSTWRYYYWGQGTQVTVSS,high polyreactivity
